Laboratory results from publication PMC8546028.
Where “and” joins values, the source holds several entries; their conditions need not be identical. Identical values can stand only once.

Legend:
[1] = biological target: SM2-ΔN40ΔC24 (deletion of 40 amino acids from N-terminus and 24 amino acids from C-terminus of SM2) (Synechococcus sp. phage S-ShM2); test: SEC-MALS; Superose-6 10/300 GL, room temperature (25 °C), 1 mg/ml (100 μl) injected, flow 0.2 ml/min; protein kept in 20 mM Tris, 200 mM NaCl, pH 8.0; self-association
[2] = biological target: SM2-ΔC24 (deletion of 24 amino acids from C-terminus of SM2) (Synechococcus sp. phage S-ShM2); test: as above
[3] = biological target: SM2-ΔN14 (deletion of 14 amino acids from N-terminus of SM2) (Synechococcus sp. phage S-ShM2); test: as above
[4] = biological target: SM2-ΔN14 (deletion of 14 amino acids from N-terminus of SM2) (Synechococcus sp. phage S-ShM2); test: crystal structure; SM2-ΔN14 at 12 mg/ml, 0.2 M lithium sulphate monohydrate, 0.1 M Tris pH 8.5, 25% PEG 3350; space group I4, 7 Å, 3 dimers in the asymmetric unit; molecular replacement with the AgsA dimer (PDB 4ZJA)
[5] = biological target: full length SM2 Tagged (SM2-FL), small heat shock protein HspSP-ShM2 of Synechococcus sp. phage S-ShM2 (Synechococcus sp. phage S-ShM2); test: SEC-MALS; Superose-6 10/300 GL, room temperature (25 °C), 1 mg/ml (100 μl) injected, flow 0.2 ml/min; protein kept in 20 mM Tris, 200 mM NaCl, pH 8.0; self-association
[6] = biological target: full length SM2 Tagged (SM2-FL), small heat shock protein HspSP-ShM2 of Synechococcus sp. phage S-ShM2 (Synechococcus sp. phage S-ShM2); test: cryo-EM structure; SM2-FL at 3 mg/ml on Quantifoil R2/1 grids, Talos Arctica 200 kV; one sample sorted into a large dataset (about 90%, 8 Å) and a small dataset (about 10%, 7.7 Å); the dimer of the crystal structure fitted to the maps

Work on “SM2-ΔN40ΔC24 (deletion of 40 amino acids from N-terminus and 24 amino acids from C-terminus of SM2) (domain or fragment)” yielded a stoichiometry N [1] of 2.

In the case of “SM2-ΔC24 (deletion of 24 amino acids from C-terminus of SM2) (domain or fragment)”, the stoichiometry N [2] is reported as 2.

“SM2-ΔN14 (deletion of 14 amino acids from N-terminus of SM2) (domain or fragment)” was tested, and the stoichiometry N [3] was 24 and the stoichiometry N [4] was 24.

For “full length SM2 Tagged (SM2-FL), small heat shock protein HspSP-ShM2 of Synechococcus sp. phage S-ShM2 (natural protein)”, the stoichiometry N [5] was over 40 and the stoichiometry N [6] was 60 and 48.
